Measured values published in PMC3025578.

T1: BamHI (Bacillus amyloliquefaciens, UniProt P23940 1-213)
T1 sequence: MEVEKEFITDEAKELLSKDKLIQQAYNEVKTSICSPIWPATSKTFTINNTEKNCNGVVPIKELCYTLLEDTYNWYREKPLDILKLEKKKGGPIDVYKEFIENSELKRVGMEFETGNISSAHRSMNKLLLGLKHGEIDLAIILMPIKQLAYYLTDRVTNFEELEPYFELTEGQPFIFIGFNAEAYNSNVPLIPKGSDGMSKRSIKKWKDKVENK

T2: OkrAI (Oceanospirillum kriegii, UniProt E2JKI3 1-194)
T2 sequence: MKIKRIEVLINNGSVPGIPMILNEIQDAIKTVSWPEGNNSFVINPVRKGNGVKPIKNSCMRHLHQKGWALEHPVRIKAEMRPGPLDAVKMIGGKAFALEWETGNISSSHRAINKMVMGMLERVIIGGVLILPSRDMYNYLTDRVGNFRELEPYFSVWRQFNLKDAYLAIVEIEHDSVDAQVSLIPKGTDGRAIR

B1: 20-mer cognate duplex (dsDNA)
DNA 1: TATGAGCGGATCCTTACGAG
DNA 2: CTCGTAAGGATCCGCTCATA
B2: palindromic 12-mer (dsDNA)
DNA 1: TATGGATCCATA
DNA 2: TATGGATCCATA

Experiments:
[1] = molecular target: T1, BamHI; test: fluorescence anisotropy
[2] = molecular target: T2, OkrAI; test: fluorescence anisotropy
[3] = molecular target: T2, OkrAI; test: X-ray crystallography

Row | Binder | Kd [1] [nM] | Kd [2] [nM] | binding result [3]
1 | B1 | 8.3 | 12.9 | –
2 | B2 | – | – | binds
